This is an account of results in article PMC4075432.

One assay has as its target GST-BCL2 (UniProt P10415). Put plainly: fluorescence polarisation. A general note: Fluorescence polarisation rises when a labelled molecule tumbles more slowly, as on binding a larger partner.
For assay [1], the target named is BCL2 (human (endogenous in OCI-LY8)) (UniProt P10415). Put plainly: co-IP.

A word on the Ki: it is a dissociation constant, usually derived from enzyme kinetics or from competition with a known ligand. Read a high Ki as lower affinity. “purified PARP1 (from UniProt P09874 1-1014) (enzyme)” gave a Ki in the assay with GST-BCL2 of 77 nM.

“poly(ADP) ribose polymerase 1 (PARP1) (from UniProt P09874 1-1014) (enzyme)”: in assay [1], the percent of PARP1 displaced from BCL2 by 100 nM ABT-737 was 65%.
